Sequences and labels used below:
B1: E3 ubiquitin-protein ligase SIAH1 (Homo sapiens), Q8IUQ4 (parent)
chain: MSRQTATALPTGTSKCPPSQRVPALTGTTASNNDLASLFECPVCFDYVLPPILQCQSGHLVCSNCRPKLTCCPTCRGPLGSIRNLAMEKVANSVLFPCKYASSGCEITLPHTEKADHEELCEFRPYSCPCPGASCKWQGSLDAVMPHLMHQHKSITTLQGEDIVFLATDINLPGAVDWVMMQSCFGFHFMLVLEKQEKYDGHQQFFAIVQLIGTRKQAENFAYRLELNGHRRRLTWEATPRSIHEGIATAIMNSDCLVFDTSIAQLFAENGNLGINVTISMC
partner: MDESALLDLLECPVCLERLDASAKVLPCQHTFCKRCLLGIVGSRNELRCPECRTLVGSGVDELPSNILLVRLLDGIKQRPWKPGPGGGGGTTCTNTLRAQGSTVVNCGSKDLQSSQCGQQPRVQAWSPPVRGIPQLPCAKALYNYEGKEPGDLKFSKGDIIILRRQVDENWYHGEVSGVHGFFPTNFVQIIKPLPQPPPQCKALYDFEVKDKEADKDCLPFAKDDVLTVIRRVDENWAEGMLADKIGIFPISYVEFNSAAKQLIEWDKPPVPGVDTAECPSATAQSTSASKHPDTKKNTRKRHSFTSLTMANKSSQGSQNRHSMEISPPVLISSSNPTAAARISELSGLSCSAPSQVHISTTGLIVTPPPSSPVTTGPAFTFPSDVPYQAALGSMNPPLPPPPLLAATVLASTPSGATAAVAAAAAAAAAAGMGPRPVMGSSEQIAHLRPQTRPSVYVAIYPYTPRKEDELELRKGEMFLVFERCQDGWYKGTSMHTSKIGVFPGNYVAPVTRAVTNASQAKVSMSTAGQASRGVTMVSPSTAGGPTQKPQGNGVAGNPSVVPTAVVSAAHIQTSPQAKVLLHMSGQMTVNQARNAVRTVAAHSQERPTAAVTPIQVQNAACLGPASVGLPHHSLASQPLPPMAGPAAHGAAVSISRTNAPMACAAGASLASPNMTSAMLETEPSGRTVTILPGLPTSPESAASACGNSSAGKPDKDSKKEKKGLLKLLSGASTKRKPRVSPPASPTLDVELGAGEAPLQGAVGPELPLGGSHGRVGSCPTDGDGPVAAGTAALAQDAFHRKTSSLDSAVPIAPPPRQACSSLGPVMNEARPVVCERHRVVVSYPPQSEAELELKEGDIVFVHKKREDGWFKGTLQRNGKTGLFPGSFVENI

Data on 1 variant can be found in IntAct's records for PubMed 16230351.

Variants of B1 are the subject of this experiment. The following applies: with sh3r1_mouse Sh3rf1, Q69ZI1.
As for MSRQTATALPTGTSKCPPSQRVPALTGTTASNNDLASLFESPVSFDYVLPPILQCQSGHLVCSNCRPKLTCCPTCRGPLGSIRNLAMEKVANSVLFPCKYASSGCEITLPHTEKADHEELCEFRPYSCPCPGASCKWQGSLDAVMPHLMHQHKSITTLQGEDIVFLATDINLPGAVDWVMMQSCFGFHFMLVLEKQEKYDGHQQFFAIVQLIGTRKQAENFAYRLELNGHRRRLTWEATPRSIHEGIATAIMNSDCLVFDTSIAQLFAENGNLGINVTISMC [C41S;C44S], the “effect of a mutation on the interaction” value is “decreasing interaction”.
